Literature values as cited in article PMC12250766.
Where two headings read alike, the source gives them in different places.

What was measured:
PSGL-1 (Homo sapiens) [1] = biological target: PSGL-1 (Homo sapiens) (UniProt Q14242)
PSGL-1 (Homo sapiens) [2] = biological target: PSGL-1 (Homo sapiens) (UniProt Q14242); remark: listed apart in the source
[3] = biological target: PSGL-1 model glycosulfopeptide (Homo sapiens) (UniProt Q14242)
[4] = biological target: PSGL-1 model glycopeptide (Homo sapiens) (UniProt Q14242)
[5] = biological target: PSGL-1 model glycosulfopeptide (Homo sapiens) (UniProt Q14242); remark: listed apart in the source

For E-selectin (from UniProt P16581), the Kd (PSGL-1 (Homo sapiens) [1]) is given as 15 µM.

In the case of L-selectin (from UniProt P14151), the Kd (PSGL-1 (Homo sapiens) [2]) is listed as 5 µM.

In the case of P-selectin (from UniProt P16109), the Kd [3] is listed as 6 µM, the Kd [4] is listed as 25 µM and the Kd [5] is listed as 0.65 µM.
